This passage reports intracellular Ca ion level-increasing activity [specific activity to Metastin (1-54)] (relative to Metastin (1-54)) results from US20090105152A1.

This experiment has as its target human OT7T175 (metastin receptor) (human) (UniProt Q969F8). The experiment can be described thus: cell-based or functional assay.

Square brackets hold non-standard residues; d marks the D form. Primed or numbered codes have the meaning given here. Ends that are not written are not given here. Phe(4-Cl) = N[C@@H](Cc1ccc(Cl)cc1)C(=O)O; Phe(3-F) = N[C@@H](Cc1cccc(F)c1)C(=O)O; Pzc(2) = piperazine-2-carboxylic acid; Ala(Pip) = (4-piperidin-1-yl)alanine; Phe(2-F) = N[C@@H](Cc1ccccc1F)C(=O)O; Arg(Me) = CNC(=N)NCCC[C@H](N)C(=O)O; Hyp = O=C(O)[C@@H]1C[C@@H](O)CN1; His(3Me) = 3-methylhistidine; Orn = NCCC[C@H](N)C(=O)O; Aib = CC(C)(N)C(=O)O; Ahx = NCCCCCC(=O)O; azaGly = NNC(=O)O

human OT7T175 (metastin receptor) (human), sequence (Q969F8 whole entry L364H): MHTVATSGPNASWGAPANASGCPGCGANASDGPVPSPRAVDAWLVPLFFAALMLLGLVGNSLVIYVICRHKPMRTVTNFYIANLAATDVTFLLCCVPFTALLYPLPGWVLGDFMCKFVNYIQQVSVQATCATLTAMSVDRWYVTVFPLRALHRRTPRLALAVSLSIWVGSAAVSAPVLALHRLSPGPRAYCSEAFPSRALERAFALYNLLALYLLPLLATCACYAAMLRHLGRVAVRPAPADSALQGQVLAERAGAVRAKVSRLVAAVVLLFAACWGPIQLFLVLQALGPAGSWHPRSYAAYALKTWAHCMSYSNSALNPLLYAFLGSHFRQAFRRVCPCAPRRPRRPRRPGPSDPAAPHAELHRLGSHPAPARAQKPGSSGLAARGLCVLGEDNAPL

B1: des(1)-Ac-[D-Tyr2,Thr3,Thr5,AzaGly7,Arg(Me)9,Trp10]MS10 (peptide)
peptide: Ac-[dY]TNTF[azaGly]L[Arg(Me)]W-NH2
SMILES: CNC(=N)NCCC[C@H](NC(=O)[C@H](CC(C)C)NC(=O)NNC(=O)[C@H](Cc1ccccc1)NC(=O)[C@@H](NC(=O)[C@H](CC(N)=O)NC(=O)[C@@H](NC(=O)[C@@H](Cc1ccc(O)cc1)NC(C)=O)[C@@H](C)O)[C@@H](C)O)C(=O)N[C@@H](Cc1c[nH]c2ccccc12)C(N)=O
As to B1, the intracellular Ca ion level-increasing activity [specific activity to Metastin (1-54)] (relative to Metastin (1-54)) came out at 1.3.

B2: des(1)-Ac-[D-Tyr2,Glu3,Thr5,Phe(3F)6,AzaGly7,Arg(Me)9,Trp10]MS10 (peptide)
peptide: Ac-[dY]ENT[Phe(3-F)][azaGly]L[Arg(Me)]W-NH2
SMILES: CNC(=N)NCCC[C@H](NC(=O)[C@H](CC(C)C)NC(=O)NNC(=O)[C@H](Cc1cccc(F)c1)NC(=O)[C@@H](NC(=O)[C@H](CC(N)=O)NC(=O)[C@H](CCC(=O)O)NC(=O)[C@@H](Cc1ccc(O)cc1)NC(C)=O)[C@@H](C)O)C(=O)N[C@@H](Cc1c[nH]c2ccccc12)C(N)=O
For the molecule B2, the intracellular Ca ion level-increasing activity [specific activity to Metastin (1-54)] (relative to Metastin (1-54)) was determined as 2.7.

B3: des(1)-Ac-[D-Tyr2,Aib3,Thr5,Phe(4Cl)6,AzaGly7,Arg(Me)9,Trp10]MS10 (peptide)
peptide: Ac-[dY][Aib]NT[Phe(4-Cl)][azaGly]L[Arg(Me)]W-NH2
SMILES: CNC(=N)NCCC[C@H](NC(=O)[C@H](CC(C)C)NC(=O)NNC(=O)[C@H](Cc1ccc(Cl)cc1)NC(=O)[C@@H](NC(=O)[C@H](CC(N)=O)NC(=O)C(C)(C)NC(=O)[C@@H](Cc1ccc(O)cc1)NC(C)=O)[C@@H](C)O)C(=O)N[C@@H](Cc1c[nH]c2ccccc12)C(N)=O
B3: the intracellular Ca ion level-increasing activity [specific activity to Metastin (1-54)] (relative to Metastin (1-54)) worked out at 2.6.
Ac-[dY][His(3Me)]NTF[azaGly]L[Arg(Me)]W-NH2 [des(1)-Ac-[D-Tyr2,His(3Me)3,Thr5,AzaGly7,Arg(Me)9,Trp10]MS10] came in with an intracellular Ca ion level-increasing activity [specific activity to Metastin (1-54)] (relative to Metastin (1-54)) of 1.1.

B4: des(1)-Ac-[D-Tyr2,Lys3,Thr5,Phe(3F)6,AzaGly7,Arg(Me)9,Trp10]MS10 (peptide)
peptide: Ac-[dY]KNT[Phe(3-F)][azaGly]L[Arg(Me)]W-NH2
SMILES: CNC(=N)NCCC[C@H](NC(=O)[C@H](CC(C)C)NC(=O)NNC(=O)[C@H](Cc1cccc(F)c1)NC(=O)[C@@H](NC(=O)[C@H](CC(N)=O)NC(=O)[C@H](CCCCN)NC(=O)[C@@H](Cc1ccc(O)cc1)NC(C)=O)[C@@H](C)O)C(=O)N[C@@H](Cc1c[nH]c2ccccc12)C(N)=O
As to B4, the intracellular Ca ion level-increasing activity [specific activity to Metastin (1-54)] (relative to Metastin (1-54)) was 2.4.

B5: des(1)-Ac-[D-Tyr2,Hyp3,Thr5,Phe(2F)6,AzaGly7,Arg(Me)9,Trp10]MS10 (peptide)
peptide: Ac-[dY][Hyp]NT[Phe(2-F)][azaGly]L[Arg(Me)]W-NH2
SMILES: CNC(=N)NCCC[C@H](NC(=O)[C@H](CC(C)C)NC(=O)NNC(=O)[C@H](Cc1ccccc1F)NC(=O)[C@@H](NC(=O)[C@H](CC(N)=O)NC(=O)[C@@H]1C[C@@H](O)CN1C(=O)[C@@H](Cc1ccc(O)cc1)NC(C)=O)[C@@H](C)O)C(=O)N[C@@H](Cc1c[nH]c2ccccc12)C(N)=O
For the molecule B5, the intracellular Ca ion level-increasing activity [specific activity to Metastin (1-54)] (relative to Metastin (1-54)) was determined as 6.4.

B6: des(1)-Ac-[D-Tyr2,Trp3,Thr5,Phe(2F)6,AzaGly7,Arg(Me)9,Trp10]MS10 (peptide)
peptide: Ac-[dY]WNT[Phe(2-F)][azaGly]L[Arg(Me)]W-NH2
SMILES: CNC(=N)NCCC[C@H](NC(=O)[C@H](CC(C)C)NC(=O)NNC(=O)[C@H](Cc1ccccc1F)NC(=O)[C@@H](NC(=O)[C@H](CC(N)=O)NC(=O)[C@H](Cc1c[nH]c2ccccc12)NC(=O)[C@@H](Cc1ccc(O)cc1)NC(C)=O)[C@@H](C)O)C(=O)N[C@@H](Cc1c[nH]c2ccccc12)C(N)=O
B6 came in with an intracellular Ca ion level-increasing activity [specific activity to Metastin (1-54)] (relative to Metastin (1-54)) of 1.5.
The figure for Ac-[dY][Ala(Pip)]NTF[azaGly]L[Arg(Me)]W-NH2 (also: position 2 DL, both configurations) [des(1)-Ac-[D-Tyr2,DL-Ala(Pip)3,Thr5,AzaGly7,Arg(Me)9,Trp10]MS10] is 2.

B7: des(1)-Ac-[D-Tyr2,Trp3,Thr5,Phe(3F)6,AzaGly7,Arg(Me)9,Trp10]MS10 (peptide)
peptide: Ac-[dY]WNT[Phe(3-F)][azaGly]L[Arg(Me)]W-NH2
SMILES: CNC(=N)NCCC[C@H](NC(=O)[C@H](CC(C)C)NC(=O)NNC(=O)[C@H](Cc1cccc(F)c1)NC(=O)[C@@H](NC(=O)[C@H](CC(N)=O)NC(=O)[C@H](Cc1c[nH]c2ccccc12)NC(=O)[C@@H](Cc1ccc(O)cc1)NC(C)=O)[C@@H](C)O)C(=O)N[C@@H](Cc1c[nH]c2ccccc12)C(N)=O
For B7, the intracellular Ca ion level-increasing activity [specific activity to Metastin (1-54)] (relative to Metastin (1-54)) stood at 0.2.

B8: des(1)-Ac-[D-Tyr2,Gly3,Thr5,Phe(4Cl)6,AzaGly7,Arg(Me)9,Trp10]MS10 (peptide)
peptide: Ac-[dY]GNT[Phe(4-Cl)][azaGly]L[Arg(Me)]W-NH2
SMILES: CNC(=N)NCCC[C@H](NC(=O)[C@H](CC(C)C)NC(=O)NNC(=O)[C@H](Cc1ccc(Cl)cc1)NC(=O)[C@@H](NC(=O)[C@H](CC(N)=O)NC(=O)CNC(=O)[C@@H](Cc1ccc(O)cc1)NC(C)=O)[C@@H](C)O)C(=O)N[C@@H](Cc1c[nH]c2ccccc12)C(N)=O
With B8, the intracellular Ca ion level-increasing activity [specific activity to Metastin (1-54)] (relative to Metastin (1-54)) worked out at 1.5.

B9: des(1)-Ac-[D-Tyr2,Trp3,Thr5,Phe(4Cl)6,AzaGly7,Arg(Me)9,Trp10]MS10 (peptide)
peptide: Ac-[dY]WNT[Phe(4-Cl)][azaGly]L[Arg(Me)]W-NH2
SMILES: CNC(=N)NCCC[C@H](NC(=O)[C@H](CC(C)C)NC(=O)NNC(=O)[C@H](Cc1ccc(Cl)cc1)NC(=O)[C@@H](NC(=O)[C@H](CC(N)=O)NC(=O)[C@H](Cc1c[nH]c2ccccc12)NC(=O)[C@@H](Cc1ccc(O)cc1)NC(C)=O)[C@@H](C)O)C(=O)N[C@@H](Cc1c[nH]c2ccccc12)C(N)=O
Take B9: the intracellular Ca ion level-increasing activity [specific activity to Metastin (1-54)] (relative to Metastin (1-54)) amounted to 0.6.

B10: des(1)-Ac-[D-Tyr2,Lys3,Thr5,Phe(4Cl)6,AzaGly7,Arg(Me)9,Trp10]MS10 (peptide)
peptide: Ac-[dY]KNT[Phe(4-Cl)][azaGly]L[Arg(Me)]W-NH2
SMILES: CNC(=N)NCCC[C@H](NC(=O)[C@H](CC(C)C)NC(=O)NNC(=O)[C@H](Cc1ccc(Cl)cc1)NC(=O)[C@@H](NC(=O)[C@H](CC(N)=O)NC(=O)[C@H](CCCCN)NC(=O)[C@@H](Cc1ccc(O)cc1)NC(C)=O)[C@@H](C)O)C(=O)N[C@@H](Cc1c[nH]c2ccccc12)C(N)=O
In the case of B10, the intracellular Ca ion level-increasing activity [specific activity to Metastin (1-54)] (relative to Metastin (1-54)) came to 1.8.

B11: des(1-2)-[Acp3,Thr5,AzaGly7,Arg(Me)9,Trp10]MS10 (peptide)
peptide: [Ahx]NTF[azaGly]L[Arg(Me)]W-NH2
modifications: N-terminus assumed
SMILES: CNC(=N)NCCC[C@H](NC(=O)[C@H](CC(C)C)NC(=O)NNC(=O)[C@H](Cc1ccccc1)NC(=O)[C@@H](NC(=O)[C@H](CC(N)=O)NC(=O)CCCCCN)[C@@H](C)O)C(=O)N[C@@H](Cc1c[nH]c2ccccc12)C(N)=O
B11 displayed an intracellular Ca ion level-increasing activity [specific activity to Metastin (1-54)] (relative to Metastin (1-54)) of 8.9.

B12: des(1)-Ac-[D-Tyr2,Glu3,Thr5,Phe(2F)6,AzaGly7,Arg(Me)9,Trp10]MS10 (peptide)
peptide: Ac-[dY]ENT[Phe(2-F)][azaGly]L[Arg(Me)]W-NH2
SMILES: CNC(=N)NCCC[C@H](NC(=O)[C@H](CC(C)C)NC(=O)NNC(=O)[C@H](Cc1ccccc1F)NC(=O)[C@@H](NC(=O)[C@H](CC(N)=O)NC(=O)[C@H](CCC(=O)O)NC(=O)[C@@H](Cc1ccc(O)cc1)NC(C)=O)[C@@H](C)O)C(=O)N[C@@H](Cc1c[nH]c2ccccc12)C(N)=O
Consider B12, for which the intracellular Ca ion level-increasing activity [specific activity to Metastin (1-54)] (relative to Metastin (1-54)) worked out at 3.5.

B13: des(1)-Ac-[D-Tyr2,Hyp3,Thr5,Phe(4Cl)6,AzaGly7,Arg(Me)9,Trp10]MS10 (peptide)
peptide: Ac-[dY][Hyp]NT[Phe(4-Cl)][azaGly]L[Arg(Me)]W-NH2
SMILES: CNC(=N)NCCC[C@H](NC(=O)[C@H](CC(C)C)NC(=O)NNC(=O)[C@H](Cc1ccc(Cl)cc1)NC(=O)[C@@H](NC(=O)[C@H](CC(N)=O)NC(=O)[C@@H]1C[C@@H](O)CN1C(=O)[C@@H](Cc1ccc(O)cc1)NC(C)=O)[C@@H](C)O)C(=O)N[C@@H](Cc1c[nH]c2ccccc12)C(N)=O
Consider B13, for which the intracellular Ca ion level-increasing activity [specific activity to Metastin (1-54)] (relative to Metastin (1-54)) was determined as 1.5.

B14: des(1)-Ac-[D-Tyr2,Orn3,Thr5,AzaGly7,Arg(Me)9,Trp10]MS10 (peptide)
peptide: Ac-[dY][Orn]NTF[azaGly]L[Arg(Me)]W-NH2
SMILES: CNC(=N)NCCC[C@H](NC(=O)[C@H](CC(C)C)NC(=O)NNC(=O)[C@H](Cc1ccccc1)NC(=O)[C@@H](NC(=O)[C@H](CC(N)=O)NC(=O)[C@H](CCCN)NC(=O)[C@@H](Cc1ccc(O)cc1)NC(C)=O)[C@@H](C)O)C(=O)N[C@@H](Cc1c[nH]c2ccccc12)C(N)=O
As for B14, the intracellular Ca ion level-increasing activity [specific activity to Metastin (1-54)] (relative to Metastin (1-54)) came to 1.9.
The figure for Ac-[dY][Pzc(2)]NTF[azaGly]L[Arg(Me)]W-NH2 [des(1)-Ac-[D-Tyr2,Pzc(2)3,Thr5,AzaGly7,Arg(Me)9,Trp10]MS10] is 1.7.

B15: des(1)-Ac-[D-Tyr2,Lys3,Thr5,Phe(2F)6,AzaGly7,Arg(Me)9,Trp10]MS10 (peptide)
peptide: Ac-[dY]KNT[Phe(2-F)][azaGly]L[Arg(Me)]W-NH2
SMILES: CNC(=N)NCCC[C@H](NC(=O)[C@H](CC(C)C)NC(=O)NNC(=O)[C@H](Cc1ccccc1F)NC(=O)[C@@H](NC(=O)[C@H](CC(N)=O)NC(=O)[C@H](CCCCN)NC(=O)[C@@H](Cc1ccc(O)cc1)NC(C)=O)[C@@H](C)O)C(=O)N[C@@H](Cc1c[nH]c2ccccc12)C(N)=O
Molecule B15 displayed an intracellular Ca ion level-increasing activity [specific activity to Metastin (1-54)] (relative to Metastin (1-54)) of 3.1.

B16: des(1)-Ac-[D-Tyr2,Glu3,Thr5,Phe(4Cl)6,AzaGly7,Arg(Me)9,Trp10]MS10 (peptide)
peptide: Ac-[dY]ENT[Phe(4-Cl)][azaGly]L[Arg(Me)]W-NH2
SMILES: CNC(=N)NCCC[C@H](NC(=O)[C@H](CC(C)C)NC(=O)NNC(=O)[C@H](Cc1ccc(Cl)cc1)NC(=O)[C@@H](NC(=O)[C@H](CC(N)=O)NC(=O)[C@H](CCC(=O)O)NC(=O)[C@@H](Cc1ccc(O)cc1)NC(C)=O)[C@@H](C)O)C(=O)N[C@@H](Cc1c[nH]c2ccccc12)C(N)=O
As for B16, the intracellular Ca ion level-increasing activity [specific activity to Metastin (1-54)] (relative to Metastin (1-54)) came out at 1.9.

B17: des(1)-Ac-[D-Tyr2,Hyp3,Thr5,Phe(3F)6,AzaGly7,Arg(Me)9,Trp10]MS10 (peptide)
peptide: Ac-[dY][Hyp]NT[Phe(3-F)][azaGly]L[Arg(Me)]W-NH2
SMILES: CNC(=N)NCCC[C@H](NC(=O)[C@H](CC(C)C)NC(=O)NNC(=O)[C@H](Cc1cccc(F)c1)NC(=O)[C@@H](NC(=O)[C@H](CC(N)=O)NC(=O)[C@@H]1C[C@@H](O)CN1C(=O)[C@@H](Cc1ccc(O)cc1)NC(C)=O)[C@@H](C)O)C(=O)N[C@@H](Cc1c[nH]c2ccccc12)C(N)=O
In turn, B17 had an intracellular Ca ion level-increasing activity [specific activity to Metastin (1-54)] (relative to Metastin (1-54)) of 2.6.
